B1: PCDHGA10 (parent)
chain: FHELQMQVTASDSGDPPLSSNVSL

Variants of: B1
Assay: protein stability index of a GFP-peptide fusion (GPS, HEK-293T) (PSI 1-6); higher = more stable
Settings: c terminus: a fixed tail appended
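Further: lentivirally expressed fusions sorted by FACS into six bins by GFP to DsRed ratio, PSI derived from sequencing read proportions per bin multiplied by bin number.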

With FHELQMQVTESDSGDPPLSSNVSL [A10E] as the variant, how does the protein stability index read?
Its protein stability index is 2.7.

With FHELQMQVTVSDSGDPPLSSNVSL [A10V] as the variant, how does the protein stability index read?
Its protein stability index is 1.26.

With FHELQMQVTHSDSGDPPLSSNVSL [A10H] as the variant, how does the protein stability index read?
Its protein stability index is 2.51.

With FHELQMQVTLSDSGDPPLSSNVSL [A10L] as the variant, how does the protein stability index read?
Its protein stability index is 1.29.

With FHELQMQVTMSDSGDPPLSSNVSL [A10M] as the variant, how does the protein stability index read?
Its protein stability index is 1.49.

With FHELQMQVTYSDSGDPPLSSNVSL [A10Y] as the variant, how does the protein stability index read?
Its protein stability index is 2.02.

Which protein stability index does the source give for FHELQMQVTASDSKDPPLSSNVSL [G14K] here?
The protein stability index was 2.31.

With FHELQMQVTASDSDDPPLSSNVSL [G14D] as the variant, how does the protein stability index read?
The protein stability index was 2.6.

Which protein stability index does the source give for FHELQMQVTASDSQDPPLSSNVSL [G14Q] here?
The protein stability index was 1.62.

Which protein stability index does the source give for FHELQMQVTASDSGDPPLSSPVSL [N21P] here?
Its protein stability index is 2.5.

For FHELQMQVTASDSGDPPLSSYVSL [N21Y], which protein stability index is on record?
The protein stability index was 1.64.

With FHELQMQVTASDSGDPPLSSRVSL [N21R] as the variant, how does the protein stability index read?
Its protein stability index is 1.91.

Which protein stability index does the source give for FHELQMQVTASDSGDPPLSSSVSL [N21S] here?
Its protein stability index is 2.1.

For FHELQMQVTASDSGDPPLSSMVSL [N21M], which protein stability index is on record?
Its protein stability index is 1.75.

With FHELQMQVTASDSGDPPLSSVVSL [N21V] as the variant, how does the protein stability index read?
The protein stability index was 1.58.

For FHELQMQVTASDSGDPPLSSKVSL [N21K], which protein stability index is on record?
Its protein stability index is 2.08.

Which protein stability index does the source give for FHELQMQVTASDSGDPPLSSTVSL [N21T] here?
Its protein stability index is 2.09.

With FHELQMQVTASDSGDPPLSSNVSK [L24K] as the variant, how does the protein stability index read?
The protein stability index was 2.79.

With FHELQMQVTASDSGDPPLSSNVSD [L24D] as the variant, how does the protein stability index read?
Its protein stability index is 3.17.

Which protein stability index does the source give for FHELQMQVTASDSGDPPLSSNVSI [L24I] here?
Its protein stability index is 1.83.

With FHELQMQVTASDSGDPPLSSNVSQ [L24Q] as the variant, how does the protein stability index read?
The protein stability index was 3.26.

Which protein stability index does the source give for FHELQMQVTASDSGDPPLSSNVST [L24T] here?
The protein stability index was 3.22.

Which protein stability index does the source give for FHELQMQVTASDSGDPPLSSNVSY [L24Y] here?
Its protein stability index is 2.31.

For FHELQMQVTASDSGDPPLSSNVSR [L24R], which protein stability index is on record?
Its protein stability index is 2.75.

For FHELQPQVTASDSGDPPLSSNVSL [M6P], which protein stability index is on record?
The protein stability index was 3.87.

For FHELQEQVTASDSGDPPLSSNVSL [M6E], which protein stability index is on record?
Its protein stability index is 3.77.

For FHELQWQVTASDSGDPPLSSNVSL [M6W], which protein stability index is on record?
Its protein stability index is 2.02.

For FHELQGQVTASDSGDPPLSSNVSL [M6G], which protein stability index is on record?
Its protein stability index is 3.07.

With FHELQCQVTASDSGDPPLSSNVSL [M6C] as the variant, how does the protein stability index read?
The protein stability index was 2.47.

For FHELQDQVTASDSGDPPLSSNVSL [M6D], which protein stability index is on record?
Its protein stability index is 3.81.

Which protein stability index does the source give for FHELQSQVTASDSGDPPLSSNVSL [M6S] here?
The protein stability index was 3.29.

Which protein stability index does the source give for FHELQTQVTASDSGDPPLSSNVSL [M6T] here?
Its protein stability index is 3.32.

Which protein stability index does the source give for FHELQRQVTASDSGDPPLSSNVSL [M6R] here?
Its protein stability index is 3.

With FHELQKQVTASDSGDPPLSSNVSL [M6K] as the variant, how does the protein stability index read?
The protein stability index was 2.52.

Which protein stability index does the source give for FHELQMQVTASDSGDPPLSSNVLL [S23L] here?
Its protein stability index is 2.05.

With FHELQMQVTASDSGDPPLSSNVPL [S23P] as the variant, how does the protein stability index read?
Its protein stability index is 2.82.

For FHELQMQVTASDSGDPPLSSNVAL [S23A], which protein stability index is on record?
Its protein stability index is 2.15.

With FHELQMQVTASDSGDPPLSSNVFL [S23F] as the variant, how does the protein stability index read?
Its protein stability index is 2.39.

With FHELQMQVTASDSGDPPLSSNVML [S23M] as the variant, how does the protein stability index read?
Its protein stability index is 2.15.

With FHELQMQVTASDSGDPPLSSNVYL [S23Y] as the variant, how does the protein stability index read?
The protein stability index was 1.75.

Which protein stability index does the source give for FHELQMQVTASDSGDPPLSSNVHL [S23H] here?
The protein stability index was 2.14.

With FHELQMQVTAIDSGDPPLSSNVSL [S11I] as the variant, how does the protein stability index read?
Its protein stability index is 1.88.

Which protein stability index does the source give for FHELQMQVTAEDSGDPPLSSNVSL [S11E] here?
Its protein stability index is 2.82.

For FHELQMQVTAWDSGDPPLSSNVSL [S11W], which protein stability index is on record?
Its protein stability index is 2.59.

For FHELQMQVTAYDSGDPPLSSNVSL [S11Y], which protein stability index is on record?
Its protein stability index is 1.47.

With FHELQMQVTAMDSGDPPLSSNVSL [S11M] as the variant, how does the protein stability index read?
Its protein stability index is 1.78.

Which protein stability index does the source give for FHELQMQVTADDSGDPPLSSNVSL [S11D] here?
Its protein stability index is 2.3.

For FHELQMQVTAGDSGDPPLSSNVSL [S11G], which protein stability index is on record?
Its protein stability index is 2.13.

For FHELQMQVTALDSGDPPLSSNVSL [S11L], which protein stability index is on record?
Its protein stability index is 2.27.

For FHELQMQVTASDSGDPPLSCNVSL [S20C], which protein stability index is on record?
The protein stability index was 1.62.

Which protein stability index does the source give for FHELQMQVTASDSGDPPLSPNVSL [S20P] here?
The protein stability index was 2.54.

For FHELQMQVTASDSGDPPLSINVSL [S20I], which protein stability index is on record?
Its protein stability index is 2.85.

For FHELQMQVTASDSGDPPLSDNVSL [S20D], which protein stability index is on record?
The protein stability index was 3.06.

Which protein stability index does the source give for FHELQMQVTASDSGDPPLSFNVSL [S20F] here?
The protein stability index was 2.69.

Which protein stability index does the source give for FHELQMQVTASDSGDPPLSRNVSL [S20R] here?
Its protein stability index is 1.42.

Which protein stability index does the source give for FHELQMQVTASDSGDPPLSYNVSL [S20Y] here?
Its protein stability index is 1.83.

Which protein stability index does the source give for FHELQMQVTASDSGDPPLSLNVSL [S20L] here?
The protein stability index was 2.69.

Which protein stability index does the source give for FHELQMQVTASDSGDPPLSHNVSL [S20H] here?
Its protein stability index is 2.05.

Which protein stability index does the source give for FHELQMQVTASDSGDPPLSANVSL [S20A] here?
The protein stability index was 1.82.

Which protein stability index does the source give for FHELQMQVTASDRGDPPLSSNVSL [S13R] here?
The protein stability index was 2.12.

For FHELQMQVTASDWGDPPLSSNVSL [S13W], which protein stability index is on record?
The protein stability index was 1.6.

Which protein stability index does the source give for FHELQMQVTASDDGDPPLSSNVSL [S13D] here?
The protein stability index was 2.53.

With FHELQMQVTASDFGDPPLSSNVSL [S13F] as the variant, how does the protein stability index read?
The protein stability index was 1.52.

With FHELQMQVTASDQGDPPLSSNVSL [S13Q] as the variant, how does the protein stability index read?
The protein stability index was 2.15.

With FHELQMQVTASDYGDPPLSSNVSL [S13Y] as the variant, how does the protein stability index read?
The protein stability index was 1.88.

For FHELQMQVTASDAGDPPLSSNVSL [S13A], which protein stability index is on record?
The protein stability index was 1.82.

For FHELQMQVTASDMGDPPLSSNVSL [S13M], which protein stability index is on record?
Its protein stability index is 2.08.

With FHELQMQVTASDPGDPPLSSNVSL [S13P] as the variant, how does the protein stability index read?
Its protein stability index is 1.71.

With FHELQMQVTASDHGDPPLSSNVSL [S13H] as the variant, how does the protein stability index read?
Its protein stability index is 2.1.

Which protein stability index does the source give for FHELQMQVTASDGGDPPLSSNVSL [S13G] here?
Its protein stability index is 2.33.

With FHELQMQVTASDKGDPPLSSNVSL [S13K] as the variant, how does the protein stability index read?
The protein stability index was 2.01.

With FHGLQMQVTASDSGDPPLSSNVSL [E3G] as the variant, how does the protein stability index read?
The protein stability index was 2.69.

Which protein stability index does the source give for FHILQMQVTASDSGDPPLSSNVSL [E3I] here?
The protein stability index was 2.38.

Which protein stability index does the source give for FHMLQMQVTASDSGDPPLSSNVSL [E3M] here?
Its protein stability index is 2.31.

For FHQLQMQVTASDSGDPPLSSNVSL [E3Q], which protein stability index is on record?
Its protein stability index is 1.85.

With FHWLQMQVTASDSGDPPLSSNVSL [E3W] as the variant, how does the protein stability index read?
The protein stability index was 2.54.

For FHALQMQVTASDSGDPPLSSNVSL [E3A], which protein stability index is on record?
Its protein stability index is 1.91.

Which protein stability index does the source give for FHRLQMQVTASDSGDPPLSSNVSL [E3R] here?
Its protein stability index is 1.85.

Which protein stability index does the source give for FHFLQMQVTASDSGDPPLSSNVSL [E3F] here?
Its protein stability index is 2.39.

With FHNLQMQVTASDSGDPPLSSNVSL [E3N] as the variant, how does the protein stability index read?
Its protein stability index is 1.7.

Which protein stability index does the source give for FHPLQMQVTASDSGDPPLSSNVSL [E3P] here?
The protein stability index was 1.97.

With FHELQMQVTASDSGKPPLSSNVSL [D15K] as the variant, how does the protein stability index read?
Its protein stability index is 1.85.

Which protein stability index does the source give for FHELQMQVTASDSGQPPLSSNVSL [D15Q] here?
Its protein stability index is 2.04.

With FHELQMQVTASDSGVPPLSSNVSL [D15V] as the variant, how does the protein stability index read?
The protein stability index was 1.92.

For FHELQMQVTASDSGMPPLSSNVSL [D15M], which protein stability index is on record?
The protein stability index was 1.91.

With FHELQMQVTASDSGEPPLSSNVSL [D15E] as the variant, how does the protein stability index read?
The protein stability index was 1.98.

For FHELQMQVTASDSGCPPLSSNVSL [D15C], which protein stability index is on record?
The protein stability index was 1.79.

With FHELQMQVTASDSGLPPLSSNVSL [D15L] as the variant, how does the protein stability index read?
Its protein stability index is 1.64.

For FHELQMQVTASDSGDFPLSSNVSL [P16F], which protein stability index is on record?
Its protein stability index is 1.6.

For FHELQMQVTASDSGDVPLSSNVSL [P16V], which protein stability index is on record?
The protein stability index was 2.21.

With FHELQMQVTASDSGDIPLSSNVSL [P16I] as the variant, how does the protein stability index read?
The protein stability index was 1.7.

Which protein stability index does the source give for FHELQMQVTASDSGDTPLSSNVSL [P16T] here?
The protein stability index was 1.99.

Which protein stability index does the source give for FHELQMQVTASDSGDLPLSSNVSL [P16L] here?
Its protein stability index is 1.57.

Which protein stability index does the source give for FHELQMQVTASDSGDRPLSSNVSL [P16R] here?
The protein stability index was 2.19.
